Assay results: paper PMC9295147 (2022)
Changes are numbered by the printed parent chain.

T1: mExoS peptide (C-terminal region of exoenzyme S)
T1 chain: QGLLDALDLAS

T2: dT14-3-3_biPKA, unphosphorylated (Tobacco | )
T2 chain: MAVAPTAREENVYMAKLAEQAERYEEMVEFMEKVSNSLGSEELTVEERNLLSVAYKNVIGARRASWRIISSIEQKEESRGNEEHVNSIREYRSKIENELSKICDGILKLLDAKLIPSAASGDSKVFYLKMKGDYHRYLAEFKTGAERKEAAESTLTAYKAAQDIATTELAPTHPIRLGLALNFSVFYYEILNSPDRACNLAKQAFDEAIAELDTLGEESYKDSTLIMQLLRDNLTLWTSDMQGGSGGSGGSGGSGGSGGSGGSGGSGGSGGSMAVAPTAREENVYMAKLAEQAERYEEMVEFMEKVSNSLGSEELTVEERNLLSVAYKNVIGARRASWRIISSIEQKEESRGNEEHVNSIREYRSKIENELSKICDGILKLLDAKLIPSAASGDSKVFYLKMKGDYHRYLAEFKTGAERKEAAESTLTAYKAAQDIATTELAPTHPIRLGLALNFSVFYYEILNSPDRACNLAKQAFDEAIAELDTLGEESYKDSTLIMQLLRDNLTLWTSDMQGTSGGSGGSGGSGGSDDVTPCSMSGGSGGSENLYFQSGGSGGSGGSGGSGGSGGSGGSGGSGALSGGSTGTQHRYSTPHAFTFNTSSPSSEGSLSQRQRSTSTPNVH

T3: dT14-3-3_PKB/CHK1, unphosphorylated (Tobacco | )
T3 chain: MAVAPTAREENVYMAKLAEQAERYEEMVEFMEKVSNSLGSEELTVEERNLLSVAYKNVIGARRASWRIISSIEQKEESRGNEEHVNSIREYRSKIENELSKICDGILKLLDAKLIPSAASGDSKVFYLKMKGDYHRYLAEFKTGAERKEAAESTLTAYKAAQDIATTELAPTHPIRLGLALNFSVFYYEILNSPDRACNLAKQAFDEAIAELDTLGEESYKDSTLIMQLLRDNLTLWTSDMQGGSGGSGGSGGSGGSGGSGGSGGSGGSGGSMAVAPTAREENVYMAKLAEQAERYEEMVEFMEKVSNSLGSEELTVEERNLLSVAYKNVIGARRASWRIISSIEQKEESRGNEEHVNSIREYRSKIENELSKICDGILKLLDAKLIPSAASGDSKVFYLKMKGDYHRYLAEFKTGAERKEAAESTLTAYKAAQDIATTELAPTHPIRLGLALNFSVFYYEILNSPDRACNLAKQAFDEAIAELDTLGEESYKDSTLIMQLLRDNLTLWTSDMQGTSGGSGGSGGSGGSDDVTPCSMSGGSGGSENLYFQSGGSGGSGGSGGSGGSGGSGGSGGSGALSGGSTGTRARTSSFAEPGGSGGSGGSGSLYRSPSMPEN

T4: dimeric Tobacco 14-3-3 scaffold (Tobacco)
T4 chain: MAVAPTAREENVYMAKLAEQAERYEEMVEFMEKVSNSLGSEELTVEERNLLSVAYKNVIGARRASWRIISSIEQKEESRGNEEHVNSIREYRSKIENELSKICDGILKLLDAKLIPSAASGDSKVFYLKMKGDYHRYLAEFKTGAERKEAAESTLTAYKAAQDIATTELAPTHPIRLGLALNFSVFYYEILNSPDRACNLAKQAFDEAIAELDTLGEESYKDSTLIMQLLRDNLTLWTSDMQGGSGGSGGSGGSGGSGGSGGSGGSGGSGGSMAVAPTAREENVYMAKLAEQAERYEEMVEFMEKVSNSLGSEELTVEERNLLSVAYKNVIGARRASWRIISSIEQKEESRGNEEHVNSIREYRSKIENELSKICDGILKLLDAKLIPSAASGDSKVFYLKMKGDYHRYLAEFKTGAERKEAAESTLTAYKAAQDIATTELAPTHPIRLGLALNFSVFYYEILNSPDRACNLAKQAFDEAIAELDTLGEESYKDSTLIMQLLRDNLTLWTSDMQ

T5: dT14-3-3_biCHK1, unphosphorylated (Tobacco | )
T5 chain: T3 chain with R586L, A587Y, T589S, S590P, F592M, A593P, P595N

T6: dT14-3-3_PKA/CHK1, unphosphorylated (Tobacco | )
T6 chain: T3 chain with A587Q, T589S, S590T, F592T, A593P, E594N, P595V

T7: dT14-3-3_biPKB, unphosphorylated (Tobacco | )
T7 chain: T3 chain with L607R, Y608A, S610T, P611S, M613F, P614A, N616P

T8: dT14-3-3_PKA/PKB, unphosphorylated (Tobacco | )
T8 chain: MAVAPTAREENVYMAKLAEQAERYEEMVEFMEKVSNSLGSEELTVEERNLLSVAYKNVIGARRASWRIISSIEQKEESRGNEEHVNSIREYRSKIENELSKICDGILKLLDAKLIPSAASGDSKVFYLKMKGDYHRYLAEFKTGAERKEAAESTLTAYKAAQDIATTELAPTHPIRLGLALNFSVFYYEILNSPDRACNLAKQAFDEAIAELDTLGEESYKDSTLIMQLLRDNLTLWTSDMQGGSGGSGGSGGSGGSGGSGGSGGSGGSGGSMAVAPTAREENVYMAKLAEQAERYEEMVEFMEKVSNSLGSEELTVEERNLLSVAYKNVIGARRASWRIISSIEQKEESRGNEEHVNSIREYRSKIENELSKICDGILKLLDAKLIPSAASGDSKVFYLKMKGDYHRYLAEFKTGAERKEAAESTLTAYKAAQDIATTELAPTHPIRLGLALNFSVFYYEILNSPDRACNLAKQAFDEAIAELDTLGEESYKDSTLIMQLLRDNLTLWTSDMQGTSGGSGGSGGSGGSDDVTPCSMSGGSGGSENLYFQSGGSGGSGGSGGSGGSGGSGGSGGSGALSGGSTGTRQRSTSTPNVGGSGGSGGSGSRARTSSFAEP

B1: dT14-3-3_biPKA, phosphorylated by PKA (protein)
chain: T2 chain
modifications: not checked
B2: dT14-3-3_biPKB, phosphorylated by PKB (protein)
chain: T3 chain with L607R, Y608A, S610T, P611S, M613F, P614A, N616P
modifications: not checked

How the values were obtained:
[1] = molecular target: T1, mExoS peptide (C-terminal region of …); assay: fluorescence polarisation
[2] = molecular target: T2, dT14-3-3_biPKA, unphosphorylated; assay: FP
[3] = molecular target: T3, dT14-3-3_PKB/CHK1, unphosphorylated; assay: FP
[4] = molecular target: T4, dimeric Tobacco 14-3-3 scaffold; assay: FP
[5] = molecular target: T5, dT14-3-3_biCHK1, unphosphorylated; assay: FP
[6] = molecular target: T6, dT14-3-3_PKA/CHK1, unphosphorylated; assay: FP
[7] = molecular target: T7, dT14-3-3_biPKB, unphosphorylated; assay: FP
[8] = molecular target: T8, dT14-3-3_PKA/PKB, unphosphorylated; assay: FP

Row | Binder | fold decrease in binding affinity relative to the unphosphorylated state [1] [fold] | Kd [2] [µM] | Kd [3] [µM] | Kd [4] [µM] | Kd [5] [µM] | Kd [6] [µM] | Kd [7] [µM] | Kd [8] [µM]
1 | B1 | 35 |  |  |  |  |  |  | 
2 | B2 | 10 |  |  |  |  |  |  | 
3 | QGLLDALDLAS [mExoS peptide (C-terminal region of exoenzyme S)] |  | 5.77 | 6.62 | 9.69 | 7.57 | 6.64 | 6.91 | 6.43
